B1: MAPK13(p38delta) (protein)
chain: MSLIRKKGFYKQDVNKTAWELPKTYVSPTHVGSGAYGSVCSAIDKRSGEKVAIKKLSRPFQSEIFAKRAYRELLLLKHMQHENVIGLLDVFTPASSLRNFYDFYLVMPFMQTDLQKIMGMEFSEEKIQYLVYQMLKGLKYIHSAGVVHRDLKPGNLAVNEDCELKILDFGLARHADAEMTGYVVTRWYRAPEVILSWMHYNQTVDIWSVGCIMAEMLTGKTLFKGKDYLDQLTQILKVTGVPGTEFVQKLNDKAAKSYIQSLPQTPRKDFTQLFPRASPQAADLLEKMLELDVDKRLTAAQALTHPFFEPFRDPEEETEAQQPFDDSLEHEKLTVDEWKQHIYKEIVNFSPIARKDSRRRSGMKL
modifications: left off: small tags and cut ends
B2: MAP4K4(HGK) (protein)
chain: MANDSPAKSLVDIDLSSLRDPAGIFELVEVVGNGTYGQVYKGRHVKTGQLAAIKVMDVTEDEEEEIKLEINMLKKYSHHRNIATYYGAFIKKSPPGHDDQLWLVMEFCGAGSITDLVKNTKGNTLKEDWIAYISREILRGLAHLHIHHVIHRDIKGQNVLLTENAEVKLVDFGVSAQLDRTVGRRNTFIGTPYWMAPEVIACDENPDATYDYRSDLWSCGITAIEMAEGAPPLCDMHPMRALFLIPRNPPPRLKSKKWSKKFFSFIEGCLVKNYMQRPSTEQLLKHPFIRDQPNERQVRIQLKDHIDRTRKKRGEKDETEYEYSGSEE
modifications: left off: a dimerising Fc or GST
B3: EPHA4 (protein)
chain: SRRRSKYSKAKQEADEEKHLNQGVRTYVDPFTYEDPNQAVREFAKEIDASCIKIEKVIGVGEFGEVCSGRLKVPGKREICVAIKTLKAGYTDKQRRDFLSEASIMGQFDHPNIIHLEGVVTKCKPVMIITEYMENGSLDAFLRKNDGRFTVIQLVGMLRGIGSGMKYLSDMSYVHRDLAARNILVNSNLVCKVSDFGMSRVLEDDPEAAYTTRGGKIPIRWTAPEAIAYRKFTSASDVWSYGIVMWEVMSYGERPYWDMSNQDVIKAIEEGYRLPPPMDCPIALHQLMLDCWQKERSDRPKFGQIVNMLDKLIRNPNSLKRTGTESSRPNTALLDPSSPEFSAVVSVGDWLQAIKMDRYKDNFTAAGYTTLEAVVHVNQEDLARIGITAITHQNKILSSVQAMRTQMQQMHGRMVPV
modifications: left off: a dimerising Fc or GST
B4: MAP3K9(MLK1) (protein)
chain: MEPSRALLGCLASAAAAAPPGEDGAGAGAEEEEEEEEEAAAAVGPGELGCDAPLPYWTAVFEYEAAGEDELTLRLGDVVEVLSKDSQVSGDEGWWTGQLNQRVGIFPSNYVTPRSAFSSRCQPGGEDPSCYPPIQLLEIDFAELTLEEIIGIGGFGKVYRAFWIGDEVAVKAARHDPDEDISQTIENVRQEAKLFAMLKHPNIIALRGVCLKEPNLCLVMEFARGGPLNRVLSGKRIPPDILVNWAVQIARGMNYLHDEAIVPIIHRDLKSSNILILQKVENGDLSNKILKITDFGLAREWHRTTKMSAAGTYAWMAPEVIRASMFSKGSDVWSYGVLLWELLTGEVPFRGIDGLAVAYGVAMNKLALPIPSTCPEPFAKLMEDCWNPDPHSRPSFTNILDQLTTIEESGFFEMPKDSFHCLQDNWKHEIQEMFDQLRAKEKELRTWEEELTRAALQQKNQEELLRRREQELAEREIDILERELNIIIHQLCQEKPRVKK
modifications: left off: a dimerising Fc or GST
B5: MAP3K5(ASK1) (protein)
chain: MSTEADEGITFSVPPFAPSGFCTIPEGGICRRGGAAAVGEGEEHQLPPPPPGSFWNVESAAAPGIGCPAATSSSSATRGRGSSVGGGSRRTTVAYVINEASQGQLVVAESEALQSLREACETVGATLETLHFGKLDFGETTVLDRFYNADIAVVEMSDAFRQPSLFYHLGVRESFSMANNIILYCDTNSDSLQSLKEIICQKNTMCTGNYTFVPYMITPHNKVYCCDSSFMKGLTELMQPNFELLLGPICLPLVDRFIQLLKVAQASSSQYFRESILNDIRKARNLYTGKELAAELARIRQRVDNIEVLTADIVINLLLSYRDIQDYDSIVKLVETLEKLPTFDLASHHHVKFHYAFALNRRNLPGDRAKALDIMIPMVQSEGQVASDMYCLVGRIYKDMFLDSNFTDTESRDHGASWFKKAFESEPTLQSGINYAVLLLAAGHQFESSFELRKVGVKLSSLLGKKGNLEKLQSYWEVGFFLGASVLANDHMRVIQASEKLFKLKTPAWYLKSIVETILIYKHFVKLTTEQPVAKQELVDFWMDFLVEATKTDVTVVRFPVLILEPTKIYQPSYLSINNEVEEKTISIWHVLPDDKKGIHEWNFSASSVRGVSISKFEERCCFLYVLHNSDDFQIYFCTELHCKKFFEMVNTITEEKGRSTEEGDCESDLLEYDYEYDENGDRVVLGKGTYGIVYAGRDLSNQVRIAIKEIPERDSRYSQPLHEEIALHKHLKHKNIVQYLGSFSENGFIKIFMEQVPGGSLSALLRSKWGPLKDNEQTIGFYTKQILEGLKYLHDNQIVHRDIKGDNVLINTYSGVLKISDFGTSKRLAGINPCTETFTGTLQYMAPEIIDKGPRGYGKAADIWSLGCTIIEMATGKPPFYELGEPQAAMFKVGMFKVHPEIPESMSAEAKAFILKCFEPDPDKRACANDLLVDEFLKVSSKKKKTQPKLSALSAGSNEYLRSISLPVPVLVEDTSSSSEYGSVSPDTELKVDPFSFKTRAKSCGERDVKGIRTLFLGIPDENFEDHSAPPSPEEKDSGFFMLRKDSERRATLHRILTEDQDKIVRNLMESLAQGAEEPKLKWEHITTLIASLREFVRSTDRKIIATTLSKLKLELDFDSHGISQVQVVLFGFQDAVNKVLRNHNIKPHWMFALDSIIRKAVQTAITILVPELRPHFSLASESDTADQEDLDVEDDHEEQPSNQTVRRPQAVIEDAVATSGVSTLSSTVSHDSQSAHRSLNVQLGRMKIETNRLLEELVRKEKELQALLHRAIEEKDQEIKHLKLKSQPIEIPELPVFHLNSSGTNTEDSELTDWLRVNGADEDTISRFLAEDYTLLDVLYYVTRDDLKCLRLRGGMLCTLWKAIIDFRNKQT
modifications: left off: a dimerising Fc or GST
B6: MAPK12(p38gamma) (protein)
chain: MSSPPPARSGFYRQEVTKTAWEVRAVYRDLQPVGSGAYGAVCSAVDGRTGAKVAIKKLYRPFQSELFAKRAYRELRLLKHMRHENVIGLLDVFTPDETLDDFTDFYLVMPFMGTDLGKLMKHEKLGEDRIQFLVYQMLKGLRYIHAAGIIHRDLKPGNLAVNEDCELKILDFGLARQADSEMTGYVVTRWYRAPEVILNWMRYTQTVDIWSVGCIMAEMITGKTLFKGSDHLDQLKEIMKVTGTPPAEFVQRLQSDEAKNYMKGLPELEKKDFASILTNASPLAVNLLEKMLVLDAEQRVTAGEALAHPYFESLHDTEDEPQVQKYDDSFDDVDRTLDEWKRVTYKEVLSFKPPRQLGARVSKETPL
modifications: left off: small tags and cut ends
B7: MAPK11(p38B) (protein)
chain: MSGPRAGFYRQELNKTVWEVPQRLQGLRPVGSGAYGSVCSAYDARLRQKVAVKKLSRPFQSLIHARRTYRELRLLKHLKHENVIGLLDVFTPATSIEDFSEVYLVTTLMGADLNNIVKCQALSDEHVQFLVYQLLRGLKYIHSAGIIHRDLKPSNVAVNEDCELRILDFGLARQADEEMTGYVATRWYRAPEIMLNWMHYNQTVDIWSVGCIMAELLQGKALFPGSDYIDQLKRIMEVVGTPSPEVLAKISSEHARTYIQSLPPMPQKDLSSIFRGANPLAIDLLGRMLVLDSDQRVSAAEALAHAYFSQYHDPEDEPEAEPYDESVEAKERTLEEWKELTYQEVLSFKPPEPPKPPGSLEIEQ
modifications: left off: small tags and cut ends

What follows are molecules tested on kinases of Table 6 on Myelin Basic Protein (MBP) (assay: Kinase assay using MBP substrate, ProQ Diamond stain (Table 6)). Conditions: kinase printed on MBP-coated slide; 20 uM ATP, 30° C.; ProQ Diamond Microarray Stain; graded Strong/Weak/Negative.
Type: biochemical
Protocol: In this illustrative example, four-well slides were designed with a hydrophobic mask surrounding 4-wells of aldehyde- or epoxy-coated glass (smooth or ES grade; Erie Scientific (Portsmouth, N.H.)). […] Bovine, dephosphorylated, Myelin Basic Protein (MBP) was purchased from Upstate Biotechnology (#13-110). MBP was diluted to 1 mg/ml in PBS, applied to the slide surface, covered with a coverslip, and left overnight at 4° C. to coat the slide with the MBP. Slides were washed 3 times with water and spun dry before printing.
Kinases were purchased from Panvera (Invitrogen, Carlsbad, Calif.), diluted in printing buffer (50 mM Tris pH 7.5, 25% glyercol, 0.05% TritonX-100, 2 mM DTT) and deposited using a GeneMachine OmniGrid100. Slides were stored at −20° C.
Reactions were performed following removal of the slide from the freezer. Reaction buffer (20 mM HEPES pH 7.5, 4 mM MgCl2, 2 mM DTT, 20 uM ATP, 5% DMSO) was added with or without inhibitor, a coverslip applied, and the slide placed at 30° C. for the appropriate reaction time. The slide was washed with water to stop the reaction (3 times) and spun dry. ProQ Diamond Microarray Stain (Invitrogen #P33706) was applied, covered with a coverslip, and the slide was incubated in the dark at room temperature for 30 minutes. The slide was destained and washed three times with water, and spun dry.

Molecule | MBP Kinase Activity
B1 | Weak
B2 | Strong
B3 | Strong
B4 | Strong
B5 | Weak
B6 | Strong
B7 | Strong

— patent publication US20090099029A1, “Methods and substrates for conducting assays” (Invitrogen Corporation, priority 2005, published 2009)
